Publication PMC2879511 (Nucleic Acids Research, 2010)

B2: 4-subunit middle module complex Med7/10/21/31-His6 (complex)
chain 1: MSNDPGNEVSSLYPPPPPYVKFFTQSNLEKLPKYKEKKAASAKQTAPNNSNGGSEEEITCALDYLIPPPMPKNQQYRAFGSIWQVKDQLPDLESMGLTQLYKKSTENESTNYQYKIQELRKLLKSLLLNYLELIGVLSINPDMYERKVENIRTILVNIHHLLNEYRPHQSRESLIMLLEEQLEYKRGEIREIEQVCKQVHDKLTSIQDTLRTGSQSPPSSSQ
chain 2: MNGNSTNNEQLQQELATTQDQVASIIESFVELGVSIYDFPGTPEATKGMITNLQRNVDRLYKLNVRSNDPQSSLSKVDIPLEVVQYIEDGRNPDIYTREFVEAIRRSNQYQRGKMHGLKQLRDSLADKIVDEFPELKEPVEDIIKRTSPIDNVSNTH
chain 3: MTDRLTQLQICLDQMTEQFCATLNYIDKNHGFERLTVNEPQMSDKHATVVPPEEFSNTIDELSTDIILKTRQINKLIDSLPGVDVSAEEQLRKIDMLQKKLVEVEDEKIEAIKKKEKLLRHVDSLIEDFVDGIANSKKST
chain 4: […]
B5: Med7 (recombinant) (natural protein)
chain: MSNDPGNEVSSLYPPPPPYVKFFTQSNLEKLPKYKEKKAASAKQTAPNNSNGGSEEEITCALDYLIPPPMPKNQQYRAFGSIWQVKDQLPDLESMGLTQLYKKSTENESTNYQYKIQELRKLLKSLLLNYLELIGVLSINPDMYERKVENIRTILVNIHHLLNEYRPHQSRESLIMLLEEQLEYKRGEIREIEQVCKQVHDKLTSIQDTLRTGSQSPPSSSQ

Assays:
[1] = molecular target: 6-subunit complex Med4/7/9/10/21/31 of the coexpressed 7-subunit middle module (S. cerevisiae, UniProt Q12343;Q08278;P33308;Q06213;P47822;P38633); assay: native MS
native MS = molecular target: the molecule itself; assay: native MS
Med7 (recombinant) = molecular target: B5; assay: native MS
Med4 (recombinant) [2] = molecular target: T1, Med4 (recombinant) (S. cerevisiae, UniProt Q12343 1-284); assay: native MS
T1 sequence: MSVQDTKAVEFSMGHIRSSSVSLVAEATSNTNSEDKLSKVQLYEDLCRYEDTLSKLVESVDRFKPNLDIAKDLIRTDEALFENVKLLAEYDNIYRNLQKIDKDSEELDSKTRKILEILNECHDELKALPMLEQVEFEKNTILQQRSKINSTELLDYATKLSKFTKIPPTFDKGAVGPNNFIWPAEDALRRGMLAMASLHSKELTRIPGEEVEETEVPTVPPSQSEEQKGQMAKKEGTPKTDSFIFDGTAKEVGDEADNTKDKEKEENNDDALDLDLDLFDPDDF

Med4 (recombinant) [3] = molecular target: T1, Med4 (recombinant); assay: copurification after coexpression
[4] = molecular target: B2; assay: native MS

B1: StrepII-tagged Med1 (natural protein)
chain: MVEGDSYVETLDSMIELFKDYKPGSITLENITRLCQTLGLESFTEELSNELSRLSTASKIIVIDVDYNKKQDRIQDVKLVLASNFDNFDYFNQRDGEHEKSNILLNSLTKYPDLKAFHNNLKFLYLLDAYSHIESDSTSHNNGSSDKSLDSSNASFNNQGKLDLFKYFTELSHYIRQCFQDNCCDFKVRTNLNDKFGIYILTQGINGKEVPLAKIYLEENKSDSQYRFYEYIYSQETKSWINESAENFSNGISLVMEIVANAKESNYTDLIWFPEDFISPELIIDKVTCSSNSSSSPPIIDLFSNNNYNSRIQLMNDFTTKLINIKKFDISNDNLDLISEILKWVQWSRIVLQNVFKLVSTPSSNSNSSELEPDYQAPFSTSTKDKNSSTSNTEPIPRSNRHGSVVEASRRRRSSTNKSKRPSITEAMMLKEEGLQQFNLHEILSEPAIEEENGDSIKEHSTTMDGANDLGFTASVSNQENAGTDIVMEDHGVLQGTSQNYGTATADDADIEMKDVSSKPSKPESSVLQLIVSEDHIILDTISECNLYDDVKCWSKFIEKFQDIVS
stoichiometry N [1]: 1

B2
stoichiometry N (native MS): 2

B3: Med21 (recombinant) (natural protein)
chain: MTDRLTQLQICLDQMTEQFCATLNYIDKNHGFERLTVNEPQMSDKHATVVPPEEFSNTIDELSTDIILKTRQINKLIDSLPGVDVSAEEQLRKIDMLQKKLVEVEDEKIEAIKKKEKLLRHVDSLIEDFVDGIANSKKST
binding result (Med7 (recombinant)): binds

B4: Med10 (recombinant) (natural protein)
chain: MNGNSTNNEQLQQELATTQDQVASIIESFVELGVSIYDFPGTPEATKGMITNLQRNVDRLYKLNVRSNDPQSSLSKVDIPLEVVQYIEDGRNPDIYTREFVEAIRRSNQYQRGKMHGLKQLRDSLADKIVDEFPELKEPVEDIIKRTSPIDNVSNTH
binding result (Med7 (recombinant)): binds

B5
binding result (Med4 (recombinant) [2]): binds

B6: Med9 (recombinant) (natural protein)
chain: MNLQNNVLNQIHQILLPTNPTLDKPNAEATKEEFSSAENRDEKDYLTNQQPKNLSTPSTSSNGEFIPHIFYSLHQIRKDPNNLSNQLETLTGSIRHRLKLCKSLISENEDTKDLLSKSPSEWQDIIHQREQELQIKRDVLDDLYRKLQR
binding result (Med4 (recombinant) [3]): binds

B7: 6-subunit middle module complex Med4/7/9/10/21/31 (complex)
chain 1: MSVQDTKAVEFSMGHIRSSSVSLVAEATSNTNSEDKLSKVQLYEDLCRYEDTLSKLVESVDRFKPNLDIAKDLIRTDEALFENVKLLAEYDNIYRNLQKIDKDSEELDSKTRKILEILNECHDELKALPMLEQVEFEKNTILQQRSKINSTELLDYATKLSKFTKIPPTFDKGAVGPNNFIWPAEDALRRGMLAMASLHSKELTRIPGEEVEETEVPTVPPSQSEEQKGQMAKKEGTPKTDSFIFDGTAKEVGDEADNTKDKEKEENNDDALDLDLDLFDPDDF
chain 2: MSNDPGNEVSSLYPPPPPYVKFFTQSNLEKLPKYKEKKAASAKQTAPNNSNGGSEEEITCALDYLIPPPMPKNQQYRAFGSIWQVKDQLPDLESMGLTQLYKKSTENESTNYQYKIQELRKLLKSLLLNYLELIGVLSINPDMYERKVENIRTILVNIHHLLNEYRPHQSRESLIMLLEEQLEYKRGEIREIEQVCKQVHDKLTSIQDTLRTGSQSPPSSSQ
chain 3: MNLQNNVLNQIHQILLPTNPTLDKPNAEATKEEFSSAENRDEKDYLTNQQPKNLSTPSTSSNGEFIPHIFYSLHQIRKDPNNLSNQLETLTGSIRHRLKLCKSLISENEDTKDLLSKSPSEWQDIIHQREQELQIKRDVLDDLYRKLQR
chain 4: MNGNSTNNEQLQQELATTQDQVASIIESFVELGVSIYDFPGTPEATKGMITNLQRNVDRLYKLNVRSNDPQSSLSKVDIPLEVVQYIEDGRNPDIYTREFVEAIRRSNQYQRGKMHGLKQLRDSLADKIVDEFPELKEPVEDIIKRTSPIDNVSNTH
chain 5: MTDRLTQLQICLDQMTEQFCATLNYIDKNHGFERLTVNEPQMSDKHATVVPPEEFSNTIDELSTDIILKTRQINKLIDSLPGVDVSAEEQLRKIDMLQKKLVEVEDEKIEAIKKKEKLLRHVDSLIEDFVDGIANSKKST
chain 6: […]
stoichiometry N (native MS): 2

B8: Med4/9 heterodimer (complex)
chain 1: MSVQDTKAVEFSMGHIRSSSVSLVAEATSNTNSEDKLSKVQLYEDLCRYEDTLSKLVESVDRFKPNLDIAKDLIRTDEALFENVKLLAEYDNIYRNLQKIDKDSEELDSKTRKILEILNECHDELKALPMLEQVEFEKNTILQQRSKINSTELLDYATKLSKFTKIPPTFDKGAVGPNNFIWPAEDALRRGMLAMASLHSKELTRIPGEEVEETEVPTVPPSQSEEQKGQMAKKEGTPKTDSFIFDGTAKEVGDEADNTKDKEKEENNDDALDLDLDLFDPDDF
chain 2: MNLQNNVLNQIHQILLPTNPTLDKPNAEATKEEFSSAENRDEKDYLTNQQPKNLSTPSTSSNGEFIPHIFYSLHQIRKDPNNLSNQLETLTGSIRHRLKLCKSLISENEDTKDLLSKSPSEWQDIIHQREQELQIKRDVLDDLYRKLQR
stoichiometry N [4]: 1
